Data reported in paper PMC4306385 (Archives of biochemistry and biophysics, 2014).

Biological target: wild-type cardiac actin (ACTC), filaments (UniProt P68032 1-377)
Experiment: co-sedimentation

B1: N-terminal C0C2 fragment of cardiac myosin binding protein-C (cMyBP-C) (domain or fragment)
chain: MPEPGKKPVSAFNKKPRSAEVTAGSAAVFEAETERSGVMVRWQRDGSDITANDKYGLAAEGKRHTLTVRDASPDDQGSYAVIAGSSKVKFDLKVTEPAPPEKAESEVAPGAPEEVPAPATELEESVSSPEGSVSVTQDGSAAEHQGAPDDPIGLFLMRPQDGEVTVGGSIVFSARVAGASLLKPPVVKWFKGKWVDLSSKVGQHLQLHDSYDRASKVYLFELHITDAQTTSAGGYRCEVSTKDKFDSCNFNLTVHEAIGSGDLDLRSAFRRTSLAGAGRRTSDSHEDAGTPDFSSLLKKRDSFRRDSKLEAPAEEDVWEILRQAPPSEYERIAFQHGVEACHRPLKRLKGMKQDEKKSTAFQKKLEPAYQVNKGHKIRLTVELADPDAEVKWLKNGQEIQMSGSKYIFESVGAKRTLTISQCSLADDAAYQCVVGGEKCSTELFVKEP
Kd: 5.02 µM
stoichiometry N: 0.76 mol/mol actin
